Measurements taken from US20210079080A1 (Hoffmann-La Roche, published 2021).
Where a chain is given by its changes, count along the chain named.

T1: VEGF-121-His (inhouse production) (human, UniProt P15692 207-395)
T1 construct: His-tagged human VEGF-A121 used in the ELISAs and (captured by an anti-His antibody) in SPR; also called hVEGF-A121; his VEGF; not shown: His tag
T1 sequence: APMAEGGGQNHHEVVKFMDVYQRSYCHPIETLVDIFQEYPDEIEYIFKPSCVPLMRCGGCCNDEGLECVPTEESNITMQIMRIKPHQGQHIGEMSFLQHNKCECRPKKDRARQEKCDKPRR

T2: human VEGF-A121 (human, UniProt P15692 207-395)
T2 sequence: T1 sequence

B1: HF2-1 Fab fragment (Fab, V domains shown)
VH: EVQLVESGGGLVQPGGSLRLSCAASNFVFRSHGMQWVRQAPGKGLEYVAGISSDGSWTGYGAAVEGRFTISRDDSKNTAYLQMNSLRAEDTAVYYCARDFSTGYGADSIDAWGQGTLVTVSS
VL: DIQMTQSPSSLSASVGDRVTITCSGGSDSAYGYGWYQQKPGKAPKTLIYWDDKRPSGVPSRFSGSRSGTDFTLTISSLQPEDFATYYCGAWEYSGGVGIFGQGTKVEIKR
notes: Prior art antibody disclosed in EP3006465
B2: HF2-9 Fab fragment (Fab, V domains shown)
VH: B1 VH with N26M, V28R, F29I, T58F, G59R, Y60V, G61A
VL: B1 VL with D28M, S29E, A30P, Y31L
notes: as for B1
B3: HF2-11 Fab fragment (Fab, V domains shown)
VH: B1 VH with N26G, V28L, F29I, T58V, G59K, Y60V, G61A
VL: B1 VL with D28S, S29E, A30P, Y31L
notes: as for B1
B4: VEGF-0113 Fab fragment (Fab, V domains shown)
VH: EVQLVESGGGLVQPGGSLRLSCAASGFTFTNYAMTWVRQAPGKGLEWVSSIGNGPGIYTYYADSVKGRFTISRDNSKNTLYLQMNSLRAEDTAVYYCAKGDNLFDSWGPGTLVTVSS
VL: DIQMTQSPASLSASVGDRVTITCRASQSIYSSLNWYQQKPGKAPKLLIYASTLQSGVPSRFSGSASGTDFTLTISSLQPEDVATYYCQQYQNFPRTFGQGTKLEIKR
notes: Variant of VEGF-0089 (G to P at position 6 of H-CDR2); Fab with rabbit derived CLkappa and CH1
B5: VEGF-P1AD8675 Fab fragment (Fab, V domains shown)
VH: B4 VH with P55G, S76W
VL: B4 VL
B6: VEGF-0114 Fab fragment (Fab, V domains shown)
VH: EVQLVESGGGLVQPGGSLRLSCAASGFTFTNYAMTWVRQAPGKGLEWVSSIGSGGFYTYYADSVKGRFTISRDNSKNTLYLQMNSLRAEDTAVYYCAKGDNLFDSWGPGTLVTVSS
VL: B4 VL
notes: Fab with rabbit derived CLkappa and CH1; also called VEGR-0114 Fab
B7: VEGF-P1AE3521 Fab fragment (Fab, V domains shown)
VH: B6 VH with S75W
VL: B4 VL
B8: VEGF-P1AE3520 Fab fragment (Fab, V domains shown)
VH: B4 VH with S76W
VL: B4 VL
B9: L3H6 Fab fragment (Fab, V domains shown)
VH: QVQLVQSGAEVKKPGESLKISCKGSGYSFTSYWIGWVRQMPGKGLEWMGIIYPGDSDTRYSPSFQGQVTISADKSISTAYLQWSSLKASDTAMYYCARQGTHNRKIWGQGTMVTVSS
VL: QAVVTQEPSLTVSPGGTVTLTCASSTGAVTSGNYPNWFQQRPGQPPRALIYSTSNKHSWTPARFSGSLLGGKAALTLSGAQPEDEAEYYCRLSYDLARPVFGGGTKLTVLG
notes: Prior art antibody disclosed in WO 2012089176, made here as Fab
B10: r84 full length IgG1 antibody (antibody, V domains shown)
VH: QVQLVQSGAEVKKPGASVKVSCKASGGTFSSYAISWVRQAPGQGLEWMGGFDPEDGETIYAQKFQGRVTMTEDTSTDTAYMELSSLRSEDTAVYYCATGRSMVRGVIIPFNGMDVWGQGTTVTVSS
VL: not shown
notes: Full length IgG1; also called r84 IgG1
B11: r84 Fab fragment (Fab, V domains shown)
VH: B10 VH
VL: not shown
notes: Prior art antibody disclosed in WO 2009060198, made here as Fab

biological target: T1, VEGF-121-His (inhouse production); test: SPR (Biacore), hVEGF-A121 captured by anti-His antibody, Fab injected, 37° C
Protocol: (§1) The surface was regenerated by injecting 10 mM Glycine pH 1.5 for 60s. […] Rate constants were calculated using the Langmuir 1:1 binding model within the Biacore® Evaluation software.
(§2) The affinity of the antibodies was determined by SPR using the same methods as described in Example 2. All Fab fragments of antibodies of the invention as listed in table 1 and table 5 were tested.

Row | Binder | Kd [nM]
1 | B1 | 0.574
2 | B2 | 0.051
3 | B3 | 0.062
4 | B4 | 0.029
5 | B5 | 0.065
6 | B6 | 0.054
7 | B7 | 0.061
8 | B8 | 0.039

biological target: T1, VEGF-121-His (inhouse production); test: SPR (Biacore), hVEGF-A121 captured by anti-His antibody, Fab injected, 25° C
Protocol: as §1
(§3) The affinity of the antibodies was determined by SPR using the same methods as described in Example 2. All Fab fragments as listed in table 1 and table 2 were tested.

Row | Binder | Kd [nM]
9 | B9 | 3.36
10 | B4 | 0.021
11 | B6 | 0.055

biological target: T1, VEGF-121-His (inhouse production); test: direct ELISA on plate-coated VEGF-121-His
Protocol: After washing 3 times with 90 μl/well PBST-buffer (bidest water, 10×PBS Roche #11666789001+0.1% Tween® 20) blocking buffer (bidest water, 10×PBS Roche #11666789001+2% Bovine Serum Albumin Fraction V, fatty acid free, Roche, #10735078001+0.05% Tween® 20) was added 90 μl/well and incubated for 1 h at room temperature. […] After incubation for 1 h at room temperature, plates were again washed 3 times with 90 μl/well PBST-buffer. […] After washing 3 times with 90 μl A PBST-buffer, 25 μl TMB (Roche, #11 835 033 001) was added to each well. After 3 min incubation at RT, signals were detected at 370 nm/492 nm on a Tecan Safire 2 Reader.

Row | Binder | EC50 (read off the curve) [nM] | binding result
12 | B9 | ~0.3 | 
13 | B4 | ~0.3 | 
14 | B6 | ~0.3 | 
15 | B10 |  | binds
16 | B11 |  | binds

biological target: T1, VEGF-121-His (inhouse production); test: inhibition ELISA: antibody titrated against 0.7 nM VEGF-121-His; blocked partner plate-bound biotinylated VEGF-R2; anti-His POD readout
Protocol: Plates were incubated for 1 h at room temperature. […] Plates were incubated for 1 h at room temperature. […] After washing 3 times with 90 μl/well PB ST-buffer, 25 μl/well detection antibody (anti His POD, Bethyl, #A190-114P, 1:12000) in 1×OSEP was added. After incubation for 1 h at room temperature plates were washed 3 times with 90 μl PBST-buffer. 25 μl TMB (Roche, #11 835 033 001) was added to all wells simultaneously. After 10 min incubation at room temperature, signals were detected at 370 nm/492 nm on a Tecan Safire 2 Reader.

Row | Binder | IC50 (read off the curve) [nM]
17 | B4 | ~2

biological target: T2, human VEGF-A121; test: cell-based or functional assay

Row | Binder | IC50 in reporter gene assay (HEK293-NFAT-RE-Luc2P/KDR cells, luminescence, 25 ng/ml VEGF-A121) [nM]
18 | B4 | 0.63
19 | B6 | 1.34

biological target: T1, VEGF-121-His (inhouse production); test: Biacore, Fab stressed 4 w/37° C./pH 7.4
Protocol: (§4) Antibody samples were formulated in 20 mM His/HisCl, 140 mM NaCl, pH 6.0, and were split into three aliquots: one aliquot was re-buffered into PBS, respectively, and two aliquots were kept in the original formulation. The PBS aliquot and one His/HisCl aliquot were incubated for 2 weeks (2 w) at 40° C. (His/NaCl) or 37° C. (PBS) in 1 mg/ml, the PBS sample was incubated further for total 4 weeks (4 w). The third control aliquot sample was stored at −80° C.

Row | Binder | VEGF-binding activity after stress (relative active concentration, normalized to unstressed aliquot)
20 | B4 | 101
21 | B5 | 109
22 | B6 | 99
23 | B7 | 99
24 | B8 | 101

biological target: T1, VEGF-121-His (inhouse production); test: SPR (Biacore), hVEGF-A121 captured by anti-His antibody, Fab injected, 37° C; remark: another data set of the same source
Protocol: as §1, §3

Row | Binder | Kd [nM]
25 | B9 | 4.52
26 | B4 | 0.017
27 | B6 | 0.056

biological target: T1, VEGF-121-His (inhouse production); test: inhibition ELISA: antibody titrated against 0.4 nM VEGF-121-His; blocked partner plate-bound biotinylated VEGF-R2; anti-His POD readout

Row | Binder | IC50 (read off the curve) [nM]
28 | B4 | ~0.2
29 | B6 | ~0.3

biological target: T1, VEGF-121-His (inhouse production); test: SPR (Biacore), hVEGF-A121 captured by anti-His antibody, Fab injected, 25° C; remark: another data set of the same source
Protocol: as §1, §2

Row | Binder | Kd [nM]
30 | B1 | 0.279
31 | B2 | 0.024
32 | B3 | 0.032
33 | B4 | 0.022
34 | B5 | 0.088
35 | B6 | 0.05
36 | B7 | 0.032
37 | B8 | 0.031

biological target: T1, VEGF-121-His (inhouse production); test: Biacore, Fab stressed 2 w/40° C./pH 6.0
Protocol: as §4

Row | Binder | VEGF-binding activity after stress (relative active concentration, normalized to unstressed aliquot)
38 | B4 | 103
39 | B5 | 101
40 | B6 | 99
41 | B7 | 101
42 | B8 | 100

biological target: T1, VEGF-121-His (inhouse production); test: Biacore, Fab stressed 2 w/37° C./pH 7.4
Protocol: as §4

Row | Binder | VEGF-binding activity after stress (relative active concentration, normalized to unstressed aliquot)
43 | B4 | 103
44 | B5 | 102
45 | B6 | 102
46 | B7 | 103
47 | B8 | 102

biological target: T1, VEGF-121-His (inhouse production); test: inhibition ELISA: antibody titrated against 0.7 nM VEGF-121-His; blocked partner plate-bound biotinylated VEGF-R1; anti-His POD readout

Row | Binder | IC50 (read off the curve) [nM]
48 | B2 | ~0.7
49 | B3 | ~1
